Measurements published in the supplement of paper PMC9170038.

Assays:
MS2 coat protein [1] = test: apparent KD of MS2 coat protein; designed switch direction (-1 OFF switch, 1 ON switch): -1; higher = weaker reporter binding; settings: Eterna round: R98
Description: (§1)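 RNA-MaP: designed FMN/MS2 RNA switches (84 nt design region) are transcribed on-chip within common flanks and titrated with SNAP-549-labelled MS2 coat protein (about 1-3000 nM) in 100 mM Tris pH 7.5, 80 mM KCl, 4 mM MgCl2, without or with 200 uM FMN. Median apparent KD per design; activation ratio = KD,OFF / KD,ON.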

MS2 coat protein [2] = test: apparent KD of MS2 coat protein; higher = weaker reporter binding; settings: Eterna round: R101
Description: as §1

Sequence	apparent KD of MS2 coat protein (MS2 coat protein [1]; input ligand: FMN 200 uM) [nM]	apparent KD of MS2 coat protein (MS2 coat protein [1]; input ligand: none) [nM]	apparent KD of MS2 coat protein (MS2 coat protein [2]; input ligand: FMN 200 uM) [nM]	apparent KD of MS2 coat protein (MS2 coat protein [2]; input ligand: none) [nM]
AGAGCCUCGUGAGGAUAUACAUGAGGAUCACCCAUGUAAUAGGAUGAACGGAGGAAACUCCGAAUGUAGAAGGCACGAGGCUCA [Exclusion NG 2/11-B1]	686	74.5		
CGCUCGCCGAGAGGAUAUGCAUUGGUGGGCGGUCCUGAACAUGAGGAUCACCCAUGUAUCAGUAAGCAGAAGGCUUGGUAGACG [Usesreed]	16.5	20.1		
GGUUGUUACGCAGGAUAUUGCCAACAGGCAGUAGGAUAUCCGAAAGGAGAAGGACCGCCAACAGGCGAGAAGGGCGGGUUAACC [pwkr exNG2 2xF7 2FMN.10.4]	48.3	35.4		
UAAAUAAAUCCUAGAGGAUCACCCUAGGAUAUCACCGUCGAGGUGCCAUAAUGGCACCUCGACGGUGAGAAGGAGGGUAAUAAA [#SharedSequence - SLExNG3: 1-1] (puzzle (switch architecture): Small Loop Exclusion NG 3)			29.3	13.8
UAAAUAAAUCCUAGAGGAUCACCCUAGGAUAUGAGGCUGCACCUCGGAUAAUCCGAGGUGCAGCCUCAGAAGGAGGAAAAUAAA [#SharedSequence - SLExNG3: 4-2] (puzzle (switch architecture): Small Loop Exclusion NG 3)			7.71	8.16
UAAAUAAAUCCUAGAGGAUCACCCUAGGAUAUGAGGCUGCACCUCGGAUAAUCCGAGGUGCAGCCUCAGAAGGAGGUUGAUAAA [#SharedSequence - SLExNG3: 6-2] (puzzle (switch architecture): Small Loop Exclusion NG 3)			11.8	10.5
UAUAUUUAGGCAGGAUAUACAUGUAUAUAUAAUUUUUUAUAUAUUAUUACAUGAGGAUCACCCAUGUAGAAGGGCCUUAUUAUA [LRO040_Exclusion NG 2]	62.9	51.2		
UGUUGUUACGCAGGAUAUUGCCAACAGGCGGUAGGAUAUCCGAAAGGAGAAGGAUCGCCAACAGGCGAGAAGGGCGGGUUAACA [pwkr exNG2 2xF7 2FMN.10.3]	26.7	21.3		
UUUUUUUUUUUUUACGCUUUGCGACGAGAAGGUACACAUGAGGAUCACCCAUGUCGAUUGGGAGGUAAGGAUAUUGGAUUGCGU [Inverted Small Loop Same State NG 3 Solution, Uracil-heavy] (puzzle (switch architecture): Inverted Small Loop Same State NG 3)			0.483	18.4
